Assay results published in EP1881070A2.

Legend:
[1] = molecular target: human zalpha11 receptor (human) (UniProt Q9HBE5); assay: cell-based or functional assay
[2] = molecular target: human zalpha11 receptor (human) (UniProt Q9HBE5); assay: 125I-ligand competition on Raji cells, relative to no competitor
[3] = molecular target: human zalpha11 receptor (human) (UniProt Q9HBE5); assay: 125I-ligand competition on BaF3/zalpha11 cells, relative to no competitor
[4] = molecular target: human zalpha11 receptor (human) (UniProt Q9HBE5); assay: 125I-ligand competition on Raji cells, relative to non-specific competitor Interferon Gamma
[5] = molecular target: human zalpha11 receptor (human) (UniProt Q9HBE5); assay: 125I-ligand competition on BaF3/zalpha11 cells, relative to non-specific competitor Interferon Gamma

Sequence of human zalpha11 receptor (human) (Q9HBE5 20-538 limits assumed): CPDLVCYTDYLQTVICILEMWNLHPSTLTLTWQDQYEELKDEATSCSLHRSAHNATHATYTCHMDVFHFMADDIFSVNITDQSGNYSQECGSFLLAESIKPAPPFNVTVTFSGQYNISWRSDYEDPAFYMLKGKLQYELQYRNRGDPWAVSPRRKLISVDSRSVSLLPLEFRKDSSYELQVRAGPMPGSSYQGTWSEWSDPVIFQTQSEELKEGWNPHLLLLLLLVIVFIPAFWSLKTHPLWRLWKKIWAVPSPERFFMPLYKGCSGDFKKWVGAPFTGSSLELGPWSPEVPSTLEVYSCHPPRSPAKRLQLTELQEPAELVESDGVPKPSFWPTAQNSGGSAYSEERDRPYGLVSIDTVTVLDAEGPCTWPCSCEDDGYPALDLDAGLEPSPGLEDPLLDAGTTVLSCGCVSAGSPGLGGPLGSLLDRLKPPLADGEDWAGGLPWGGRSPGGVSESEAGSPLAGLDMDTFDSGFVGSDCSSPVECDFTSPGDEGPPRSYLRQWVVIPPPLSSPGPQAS
Sequence of human zalpha11 Ligand-saporin immunotoxin conjugate (Q9HBE4 32-162): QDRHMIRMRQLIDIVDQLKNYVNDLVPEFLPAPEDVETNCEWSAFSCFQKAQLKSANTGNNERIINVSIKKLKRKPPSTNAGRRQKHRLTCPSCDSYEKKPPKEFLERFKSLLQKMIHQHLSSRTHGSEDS

## human zalpha11 Ligand-saporin immunotoxin conjugate
[1]
  growth inhibition of IM-9 cells at the maximal conjugate concentration (250 ng/ml), Alamar Blue: 79%
  growth inhibition of RAMOS cells at the maximal conjugate concentration (250 ng/ml), Alamar Blue: 65%

## purified CHO recombinant human zalpha11 Ligand (huzalpha11L-CHO) (from UniProt Q9HBE4 32-162)
[2]
  fold decrease in binding of 125I-labeled ligand at 250 fold molar excess: 3.7 fold
[3]
  fold decrease in binding of 125I-labeled ligand at 250 fold molar excess: 3.06 fold
[4]
  fold decrease in binding of 125I-labeled ligand at 250 fold molar excess: 3 fold
[5]
  fold decrease in binding of 125I-labeled ligand at 250 fold molar excess: 2 fold
